Source: article PMC13042514, “Comprehensive Profiling of N 6‐methyladnosine (m6A) Readouts Reveals Novel m6A Readers That Regulate Human Embryonic Stem Cell Differentiation”

Legend:
Assay in all cases: EMSA; EMSA: Beyotime GS606 kit binding buffer (composition not given), 1 ug protein and 1 uL of 2.5 nM biotin probe in 10 uL, on ice 10 min; pull-down: Pierce 20164 kit, 50 pmol RNA, 200 ug total protein, 4 C 30-60 min
Settings in all cases: protein: recombinant; tags: GST; label: biotin; single strand
GST-FXR2 = GST-FXR2 (UniProt P51116 1-673)
Chain of GST-FXR2 (P51116 whole entry): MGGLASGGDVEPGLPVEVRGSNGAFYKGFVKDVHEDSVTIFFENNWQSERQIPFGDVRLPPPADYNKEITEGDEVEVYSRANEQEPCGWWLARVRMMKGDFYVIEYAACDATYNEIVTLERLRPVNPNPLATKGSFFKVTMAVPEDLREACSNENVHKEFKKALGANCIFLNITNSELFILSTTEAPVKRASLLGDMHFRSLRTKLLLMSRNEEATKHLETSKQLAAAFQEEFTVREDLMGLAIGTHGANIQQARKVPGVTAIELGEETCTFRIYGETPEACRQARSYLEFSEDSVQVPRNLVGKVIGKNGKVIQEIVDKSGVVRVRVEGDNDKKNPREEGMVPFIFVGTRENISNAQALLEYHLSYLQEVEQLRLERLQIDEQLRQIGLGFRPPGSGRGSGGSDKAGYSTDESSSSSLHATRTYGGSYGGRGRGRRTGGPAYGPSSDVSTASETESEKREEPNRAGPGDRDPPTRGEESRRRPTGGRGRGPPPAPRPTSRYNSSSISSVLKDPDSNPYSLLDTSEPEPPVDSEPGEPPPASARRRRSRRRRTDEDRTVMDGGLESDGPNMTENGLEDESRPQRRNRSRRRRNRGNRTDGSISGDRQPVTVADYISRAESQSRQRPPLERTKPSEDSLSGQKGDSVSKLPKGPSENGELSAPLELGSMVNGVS

GST-FUBP3 = GST-FUBP3 (UniProt Q96I24 1-572)
Chain of GST-FUBP3 (Q96I24 whole entry): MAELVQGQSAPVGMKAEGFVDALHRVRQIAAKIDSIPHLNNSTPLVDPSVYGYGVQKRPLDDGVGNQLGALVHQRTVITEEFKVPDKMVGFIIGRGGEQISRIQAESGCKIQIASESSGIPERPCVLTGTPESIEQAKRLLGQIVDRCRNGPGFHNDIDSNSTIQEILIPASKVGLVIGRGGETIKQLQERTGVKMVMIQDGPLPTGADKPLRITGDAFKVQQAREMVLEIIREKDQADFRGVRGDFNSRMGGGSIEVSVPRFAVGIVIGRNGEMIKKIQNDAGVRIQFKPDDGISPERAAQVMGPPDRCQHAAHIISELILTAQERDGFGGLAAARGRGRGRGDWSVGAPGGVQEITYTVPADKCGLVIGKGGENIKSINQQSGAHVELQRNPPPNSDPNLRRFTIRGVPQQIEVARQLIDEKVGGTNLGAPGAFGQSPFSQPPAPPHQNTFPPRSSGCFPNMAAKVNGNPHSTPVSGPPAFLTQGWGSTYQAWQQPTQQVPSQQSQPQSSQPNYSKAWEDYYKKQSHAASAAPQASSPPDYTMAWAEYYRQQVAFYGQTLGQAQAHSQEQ

GST-L1TD1 = biological target: T1, GST-L1TD1 (UniProt Q5T7N2 1-865)
T1 sequence: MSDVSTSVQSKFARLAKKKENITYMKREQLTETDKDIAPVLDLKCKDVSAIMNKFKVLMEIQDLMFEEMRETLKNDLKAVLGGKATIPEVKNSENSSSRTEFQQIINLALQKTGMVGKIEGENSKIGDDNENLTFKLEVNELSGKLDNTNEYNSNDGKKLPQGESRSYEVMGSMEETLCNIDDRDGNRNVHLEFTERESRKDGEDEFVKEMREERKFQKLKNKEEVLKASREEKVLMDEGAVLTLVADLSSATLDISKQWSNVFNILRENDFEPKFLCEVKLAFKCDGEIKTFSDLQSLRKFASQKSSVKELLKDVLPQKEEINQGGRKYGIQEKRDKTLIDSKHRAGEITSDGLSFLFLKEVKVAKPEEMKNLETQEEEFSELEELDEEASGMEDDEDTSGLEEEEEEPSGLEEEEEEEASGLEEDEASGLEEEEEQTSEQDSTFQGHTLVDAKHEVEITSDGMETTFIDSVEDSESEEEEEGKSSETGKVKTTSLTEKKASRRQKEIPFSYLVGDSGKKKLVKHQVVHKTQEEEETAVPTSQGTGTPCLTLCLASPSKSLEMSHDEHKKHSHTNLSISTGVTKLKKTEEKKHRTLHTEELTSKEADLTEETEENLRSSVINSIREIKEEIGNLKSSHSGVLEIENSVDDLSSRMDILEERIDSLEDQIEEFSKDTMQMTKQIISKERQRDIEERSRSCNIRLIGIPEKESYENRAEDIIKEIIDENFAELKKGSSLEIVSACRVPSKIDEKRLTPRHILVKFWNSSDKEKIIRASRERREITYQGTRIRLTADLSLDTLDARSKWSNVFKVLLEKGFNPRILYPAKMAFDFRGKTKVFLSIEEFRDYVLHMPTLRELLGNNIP

GST-DDX6 = GST-DDX6 (UniProt P26196 1-483)
Chain of GST-DDX6 (P26196 whole entry): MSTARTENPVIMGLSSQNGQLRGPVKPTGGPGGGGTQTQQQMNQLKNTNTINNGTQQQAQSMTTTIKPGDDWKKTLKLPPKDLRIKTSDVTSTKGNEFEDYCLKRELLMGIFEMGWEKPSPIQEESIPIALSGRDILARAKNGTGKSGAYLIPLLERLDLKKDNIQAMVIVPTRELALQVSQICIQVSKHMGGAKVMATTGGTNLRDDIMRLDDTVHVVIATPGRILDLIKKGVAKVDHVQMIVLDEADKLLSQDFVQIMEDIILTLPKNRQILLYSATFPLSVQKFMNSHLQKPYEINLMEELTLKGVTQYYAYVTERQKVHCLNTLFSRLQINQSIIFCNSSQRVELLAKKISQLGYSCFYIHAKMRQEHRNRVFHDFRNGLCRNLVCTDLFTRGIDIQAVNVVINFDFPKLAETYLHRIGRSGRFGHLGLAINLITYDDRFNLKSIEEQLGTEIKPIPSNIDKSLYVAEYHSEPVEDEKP

Measured: binding result

CGUCUCGGACUCGGACUGCU (ssRNA, m6A at positions 9 and 15) [ss-m6A (EMSA)]
binds: all assays above
